# Experimental data from patent US20210355194A1 (TWIST BIOSCIENCE, published 2021).
# Changes are numbered by the printed parent chain. Where two headings read alike, the source gives them in different places.
# B1: 2-17 (antibody, V domains shown)
# VH: EVQLLESGGGLVQPGGSLRLSCAASGFTFSNYAMSWVRQAPGKGLEWVSAISGSAGSTYYADSVKGRFTISRDNSKNTLYLQMNSLRAEDTAVYYCARVRQGLRRTWYYFDYWGQGTLVTVSS
# VL: DIQMTQSPSSLSASVGDRVTITCTGTSSDVGSSNLVSWYQQKPGKAPKLLIYEGSKRPSGVPSRFSGSGSGTDFTLTISSLQPEDFATYYCCSYAGSLYVFGQGTKVEIK
# notes: also called variant 2-17
# B2: variant 5-34 (Fc fusion)
# VHH: EVQLVESGGGLVQPGGSLRLSCAASGRTFSRYIMGWFRQAPGKEREFVAAISWSGGDNTYYADSVKGRFTISADNSKNTAYLQMNSLKPEDTAVYYCAAYRIVVGGTSPGDWRWGQGTLVTVSS
# B3: variant 5-1 (Fc fusion)
# VHH: EVQLVESGGGLVQPGGSLRLSCAASGGTFSSIGMGWFRQAPGKEREFVAAISWDGGATAYADSVKGRFTISADNSKNTAYLQMNSLKPEDTAVYYCAKEDVGKPFDWGQGTLVTVSS
# B4: variant 5-37 (Fc fusion)
# VHH: EVQLVESGGGLVQPGGSLRLSCAASGSTFSINAMGWFRQAPGKEREFVGGISRSGATTNYADSVKGRFTISADNSKNTAYLQMNSLKPEDTAVYYCAADGVPEYSDYASGPVWGQGTLVTVSS
# B5: 2-12 (antibody, V domains shown)
# VH: EVQLLESGGGLVQPGGSLRLSCAASGFTFSDYPMNWVRQAPGKGLEWVSTISGSGGITFYADSVKGRFTISRDNSKNTLYLQMNSLRAEDTAVYYCVRHDEYSFDYWGQGTLVTVSS
# VL: DIQMTQSPSSLSASVGDRVTITCRASQSIDNYLNWYQQKPGKAPKLLIYGVSALQSGVPSRFSGSGSGTDFTLTISSLQPEDFATYYCQQSHSAPPYFFGQGTKVEIK
# notes: also called variant 2-12
# B6: variant 2-12 (antibody, V domains shown)
# VH: B5 VH
# VL: B5 VL
# B7: variant 2-8 (antibody, V domains shown)
# VH: EVQLLESGGGLVQPGGSLRLSCAASGFTFSDFAMAWVRQAPGKGLEWVSAISGSGDITYYADSVKGRFTISRDNSKNTLYLQMNSLRAEDTAVYYCAREADGLHSPWHFDLWGQGTLVTVSS
# VL: B5 VL with N31T, G50A, V51A, Q55A, H92Y, F98T
# B8: variant 2-5 (antibody, V domains shown)
# VH: B7 VH
# VL: B5 VL with D30H, N31T, G50A, V51A, Q55A, H92Y, F98T
# B9: 2-13 (antibody, V domains shown)
# VH: B5 VH with T50A, G56D, I57N, F59Y
# VL: B5 VL with N31T, V51A, Q55E
# notes: also called variant 2-13
# B10: variant 2-13 (antibody, V domains shown)
# VH: B5 VH with T50A, G56D, I57N, F59Y
# VL: B5 VL with N31T, V51A, Q55E
# B11: variant 5-20 (Fc fusion)
# VHH: EVQLVESGGGLVQPGGSLRLSCAASGRTIVPYTMGWFRQAPGKERELVAAISPSAFTEYADSVKGRFTISADNSKNTAYLQMNSLKPEDTAVYYCAARRWGYDWGQGTLVTVSS
# B12: 2-18 (antibody, V domains shown)
# VH: EVQLLESGGGLVQPGGSLRLSCAASGFTFSSYAMYWVRQAPGKGLEWVSAISGSAGSTYYADSVKGRFTISRDNSKNTLYLQMNSLRAEDTAVYYCARDTNDFWSGYSIFDPWGQGTLVTVSS
# VL: DIQMTQSPSSLSASVGDRVTITCTGTSSDIGSYNLVSWYQQKPGKAPKLLIYEGTKRPSGVPSRFSGSGSGTDFTLTISSLQPEDFATYYCCSYAGSRTYVFGQGTKVEIK
# notes: also called variant 2-18
# B13: 2-19 (antibody, V domains shown)
# VH: EVQLLESGGGLVQPGGSLRLSCAASGFTFSSYTMSWVRQAPGKGLEWVSVISGSGGSTYYADSVKGRFTISRDNSKNTLYLQMNSLRAEDTAVYYCAREGYRDYLWYFDLWGQGTLVTVSS
# VL: DIQMTQSPSSLSASVGDRVTITCTGTSTDVGSYNLVSWYQQKPGKAPKLLIYEGTKRPSGVPSRFSGSGSGTDFTLTISSLQPEDFATYYCCSYAGSYTSVVFGQGTKVEIK
# notes: also called variant 2-19
# B14: variant 2-2 (antibody, V domains shown)
# VH: EVQLLESGGGLVQPGGSLRLSCAASGFTFSRHAMNWVRQAPGKGLEWVSGISGSGDETYYADSVKGRFTISRDNSKNTLYLQMNSLRAEDTAVYYCARDLPASYYDSSGYYWHNGMDVWGQGTLVTVSS
# VL: DIQMTQSPSSLSASVGDRVTITCRASQTINTYLNWYQQKPGKAPKLLIYSASTLQSGVPSRFSGSGSGTDFTLTISSLQPEDFATYYCQQSYSTFTFGQGTKVEIK
# B15: variant 2-2 (antibody, V domains shown)
# VH: B14 VH
# VL: B14 VL
# How the values were obtained:
# SARS-CoV-2 S1 protein [1] = target: T1, SARS-CoV-2 S1 protein (SARS-CoV-2, UniProt P0DTC2 16-685); assay: phage ELISA screen on S1, mean
# T1 construct: also called SARS-CoV-2 Spike Glycoprotein S1; S1 (subunit 1)
# SARS-CoV-2 S1 protein [2] = target: T1, SARS-CoV-2 S1 protein; assay: ELISA binding titration on coated antigen
# SARS-CoV-2 S1 protein [3] = target: T1, SARS-CoV-2 S1 protein; assay: phage ELISA screen on S1, mean; remark: listed apart in the source
# [4] = target: T2, SARS-COV2-S1 RBD (mouse IgG2Fc tag) (SARS-CoV-2, UniProt P0DTC2 319-537); assay: column not explained; likely FACS, S1 RBD on Vero E6
# [5] = target: T2, SARS-COV2-S1 RBD (mouse IgG2Fc tag); assay: FACS, blocks S1 RBD-mFc binding to ACE2 on Vero E6
# [6] = target: T3, Acro SARS-CoV-2 (COVID-19) S1 protein (SARS-CoV-2, UniProt P0DTC2 16-685); assay: SPR
# T3 construct: also called SARS-CoV-2 S1
# SARS-CoV-2 S1 protein [7] = target: T1, SARS-CoV-2 S1 protein; assay: inhibitor ELISA, competitor ACE2
# [8] = target: T4, COVID S1 RBD Fc fusion (Antigen 1) (SARS-CoV-2, UniProt P0DTC2 319-541); assay: phage ELISA
# T4 construct: domain: S1 RBD
# S1-Fc = target: T5, S1-Fc (SARS-CoV-2, UniProt P0DTC2 14-685); assay: phage ELISA
# T5 construct: also called S1 Fc fusion protein
# [9] = target: T6, COVID S1 RBM Fc fusion (Antigen 2) (SARS-CoV-2, UniProt P0DTC2 437-508); assay: phage ELISA
# T6 construct: domain: S1 RBM
# [10] = target: SARS-CoV-2 S1 (subunit 1) protein (SARS-CoV-2, UniProt P0DTC2 16-685); assay: phage ELISA
# [11] = target: T2, SARS-COV2-S1 RBD (mouse IgG2Fc tag); assay: FACS, blocks S1 RBD-mFc binding to ACE2 on Vero E6; remark: listed apart in the source
binder,measurement,setting,value
B1,ELISA(Avg),SARS-CoV-2 S1 protein [1],3.5 fold over background
same,EC50,SARS-CoV-2 S1 protein [2],100 nM
same,ELISA(Avg),SARS-CoV-2 S1 protein [3],3.5 fold over background
B2,MFI Fold Decrease,[4],5.69 fold
same,IC50,[5],1.21 nM
B3,MFI Fold Decrease,[4],10 fold
same,IC50,[5],0.75 nM
same,Kd,[6],15.1 nM
B4,MFI Fold Decrease,[4],8.19 fold
same,IC50,[5],1.01 nM
same,Kd,[6],30.2 nM
B5,ELISA(Avg),SARS-CoV-2 S1 protein [1],18.2 fold over background
same,IC50,SARS-CoV-2 S1 protein [7],1 nM
B6,"specificity ELISA, fold over background",[8],40.3 fold over background
same,"specificity ELISA, percent binding relative to Acro S1",[8],101%
same,"specificity ELISA, fold over background",S1-Fc,14.7 fold over background
same,"specificity ELISA, percent binding relative to Acro S1",S1-Fc,37%
same,"specificity ELISA, fold over background",[9],1.1 fold over background
same,"specificity ELISA, percent binding relative to Acro S1",[9],2.9%
same,"screening ELISA (Avg), fold over background",[10],18.2 fold over background
B7,"specificity ELISA, fold over background",[8],36.5 fold over background
same,"specificity ELISA, percent binding relative to Acro S1",[8],102%
same,"specificity ELISA, fold over background",S1-Fc,5.4 fold over background
same,"specificity ELISA, percent binding relative to Acro S1",S1-Fc,15%
same,"specificity ELISA, fold over background",[9],1.1 fold over background
same,"specificity ELISA, percent binding relative to Acro S1",[9],3.1%
same,"screening ELISA (Avg), fold over background",[10],32.4 fold over background
B8,IC50,[11],2.15 nM
same,IC50,[5],2.15 nM
B9,ELISA(Avg),SARS-CoV-2 S1 protein [1],19.1 fold over background
same,IC50,SARS-CoV-2 S1 protein [7],45 nM
B10,"specificity ELISA, fold over background",[8],32.1 fold over background
same,"specificity ELISA, percent binding relative to Acro S1",[8],118%
same,"specificity ELISA, fold over background",S1-Fc,3.7 fold over background
same,"specificity ELISA, percent binding relative to Acro S1",S1-Fc,13.4%
same,"specificity ELISA, fold over background",[9],0.9 fold over background
same,"specificity ELISA, percent binding relative to Acro S1",[9],3.1%
same,"screening ELISA (Avg), fold over background",[10],19.1 fold over background
B11,MFI Fold Decrease,[4],12.4 fold
same,IC50,[5],1.23 nM
same,Kd,[6],14.3 nM
B12,ELISA(Avg),SARS-CoV-2 S1 protein [1],43 fold over background
same,ELISA(Avg),SARS-CoV-2 S1 protein [3],43 fold over background
B13,ELISA(Avg),SARS-CoV-2 S1 protein [1],21.7 fold over background
same,ELISA(Avg),SARS-CoV-2 S1 protein [3],21.7 fold over background
B14,"specificity ELISA, fold over background",[8],39.6 fold over background
same,"specificity ELISA, percent binding relative to Acro S1",[8],100%
same,"specificity ELISA, fold over background",S1-Fc,4.7 fold over background
same,"specificity ELISA, percent binding relative to Acro S1",S1-Fc,12%
same,"specificity ELISA, fold over background",[9],1.1 fold over background
same,"specificity ELISA, percent binding relative to Acro S1",[9],2.8%
same,"screening ELISA (Avg), fold over background",[10],23.4 fold over background
B15,IC50,[11],0.56 nM
same,IC50,[5],0.56 nM
